Measured values reported in the PETadex activity labels (doi:10.1016/j.bbalip.2005.11.003).

B1: unnamed (protein)
chain: MLDMPIDPVYYQLAEYFDSLPKFDQFSSAREYREAINRIYEERNRQLSQHERVERVEDRTIKGRNGDIRVRVYQQKPDSPVLVYYHGGGFVICSIESHDALCRRIARLSNSTVVSVDYRLAPEHKFPAAVYDCYDATKWVAENAEELRIDPSKIFVGGDSAGGNLAAAVSIMARDSGEDFIKHQILIYPVVNFVAPTPSLLEFGEGLWILDQKIMSWFSEQYFSREEDKFNPLASVIFADLENLPPALIITAEYDPLRDEGEVFGQMLRRAGVEASIVRYRGVLHGFINYYPVLKAARDAINQIAALLVFD
B2: unnamed (protein)
chain: MLPLWTLSLLLGAVAGKEVCYERLGCFSDDSPWSGITERPLHILPWSPKDVNTRFLLYTNENPNNFQEVAADSSSISGSNFKTNRKTRFIIHGFIDKGEENWLANVCKNLFKVESVNCICVDWKGGSRTGYTQASQNIRIVGAEVAYFVEFLQSAFGYSPSNVHVIGHSLGAHAAGEAGRRTNGTIGRITGLDPAEPCFQGTPELVRLDPSDAKFVDVIHTDGAPIVPNLGFGMSQVVGHLDFFPNGGVEMPGCKKNILSQIVDIDGIWEGTRDFAACNHLRSYKYYTDSIVNPDGFAGFPCASYNVFTANKCFPCPSGGCPQMGHYADRYPGKTNDVGQKFYLDTGDASNFARWRYKVSVTLSGKKVTGHILVSLFGNKGNSKQYEIFKGTLKPDSTHSNEFDSDVDVGDLQMVKFIWYNNVINPTLPRVGASKIIVETNVGKQFNFCSPETVREEVLLTLTPC
B3: unnamed (protein)
chain: MWLLPLVLTSLASSATWAGQPASPPVVDTAQGRVLGKYVSLEGLAQPVAVFLGVPFAKPPLGSLRFAPPQPAEPWSFVKNTTSYPPMCCQDPVVEQMTSDLFTNGKERLTLEFSEDCLYLNIYTPADLTKRGRLPVMVWIHGGGLVLGGAPMYDGVVLAAHENVVVVAIQYRLGIWGFFSTGDEHSRGNWGHLDQVAALHWVQENIANFGGDPGSVTIFGESAGGESVSVLVLSPLAKNLFHRAISESGVALTVALVRKDMKAAAKQIAVLAGCKTTTSAVFVHCLRQKSEDELLDLTLKMKFLTLDFHGDQRESHPFLPTVVDGVLLPKMPEEILAEKDFNTVPYIVGINKQEFGWLLPTMMGFPLSEGKLDQKTATSLLWKSYPIANIPEELTPVATDKYLGGTDDPVKKKDLFLDLMGDVVFGVPSVTVARQHRDAGAPTYMYEFQYRPSFSSDKKPKTVIGDHGDEIFSVFGFPLLKGDAPEEEVSLSKTVMKFWANFARSGNPNGEGLPHWPMYDQEEGYLQIGVNTQAAKRLKGEEVAFWNDLLSKEAAKKPPKIKHAEL
B4: unnamed (protein)
chain: MLHLVCLALLCHVARGLPTQASHNAQPVINLGYARYQGVRLEAGVDEFLGMRYASPPIGDLRFRAPQDPPANQTLQSATEYGPICIGLDEEESPGDISEDCLFINVFKPSTATSQSKLPVWLFIQGGGYAENSNANYNGTQVIQASDDVIVFVTFNYRVGALGFLASEKVRQNGDLNAGLLDQRKALRWVKQYIEQFGGDPDHIVIHGVSAGAGSVAYHLSAYGGKDEGLFIGAIVESSFWPTQRTVSEMEFQFERFVNDTGCSSARDSLECLREQDIATIQKGNTGSPFPGGSSSPLPDWYFLPVTDGSLVPDELYNAFDAGNFIKVPVLVGDDTDEGSNFAYNASSSADVSRFFKNNYPNLTSQQLNEINQVYPRGKLLPRHAAYFGASSAAYGDATFTCPGNHVASSAARYLPNSVWNYRVNIIDESNIAGGIGVPHTFELPAIFGAGSTGTLSSDSSYLTYNAAIIPVTMHYFISFVQTLNPNTYRYATAPEWNTWGNGQRLRLQTNDTAMEAVPESSLQDCAFWKSLTVPMEV

Each protein was assayed on p-NP-C4. Conditions: pH 7; 25 °C.

Point of comparison: B3, Km 80 µM. Against it:
- B1 — 2-fold lower, 40 µM

Point of comparison: B1, kcat 140 s⁻¹. Against it:
- B3 — 7.8-fold lower, 18 s⁻¹

Point of comparison: B3, kcat/Km 225000 M⁻¹ s⁻¹. Against it:
- B1 — 16-fold higher, 3.5e+06 M⁻¹ s⁻¹

The proteins below were run on triacetin. Conditions: pH 7; 25 °C.

Point of comparison: B3, Km 3000 µM. Against it:
- B1 — 3.3-fold higher, 10000 µM
- B2 — 63-fold higher, 190000 µM
- B4 — 5-fold higher, 15000 µM

Point of comparison: B2, kcat 8 s⁻¹. Against it:
- B1 — 5-fold higher, 40 s⁻¹
- B3 — 7.5-fold higher, 60 s⁻¹
- B4 — 33-fold higher, 265 s⁻¹

Point of comparison: B2, kcat/Km 42.1 M⁻¹ s⁻¹. Against it:
- B1 — 95-fold higher, 4000 M⁻¹ s⁻¹
- B3 — 480-fold higher, 20000 M⁻¹ s⁻¹
- B4 — 420-fold higher, 17700 M⁻¹ s⁻¹

The proteins below were run on tributyrin. Conditions: pH 7; 25 °C.

Point of comparison: B1, Km 50 µM. Against it:
- B2 — 8-fold higher, 400 µM
- B3 — the same, 50 µM

Point of comparison: B2, kcat 7890 s⁻¹. Against it:
- B1 — 83-fold lower, 95 s⁻¹
- B3 — 110-fold lower, 70 s⁻¹

Point of comparison: B2, kcat/Km 1.97e+07 M⁻¹ s⁻¹. Against it:
- B1 — 10-fold lower, 1.9e+06 M⁻¹ s⁻¹
- B3 — 14-fold lower, 1.4e+06 M⁻¹ s⁻¹

What follows are proteins tested on tripropionin. Conditions: pH 7; 25 °C.

Point of comparison: B2, Km 8000 µM. Against it:
- B1 — 27-fold lower, 300 µM
- B3 — 27-fold lower, 300 µM
- B4 — 23-fold lower, 350 µM

Point of comparison: B2, kcat 3320 s⁻¹. Against it:
- B1 — 30-fold lower, 110 s⁻¹
- B3 — 66-fold lower, 50 s⁻¹
- B4 — 55-fold lower, 60 s⁻¹

Point of comparison: B1, kcat/Km 367000 M⁻¹ s⁻¹. Against it:
- B2 — within 1.5-fold, 415000 M⁻¹ s⁻¹
- B3 — 2.2-fold lower, 167000 M⁻¹ s⁻¹
- B4 — 2.1-fold lower, 171000 M⁻¹ s⁻¹

Each protein was assayed on vinyl acetate. Conditions: pH 7; 25 °C.

Point of comparison: B1, Km 4000 µM. Against it:
- B2 — 79-fold higher, 315000 µM
- B3 — the same, 4000 µM
- B4 — within 1.5-fold, 3000 µM

Point of comparison: B1, kcat 50 s⁻¹. Against it:
- B2 — 3.4-fold higher, 170 s⁻¹
- B3 — 6.3-fold higher, 315 s⁻¹
- B4 — 8-fold higher, 400 s⁻¹

Point of comparison: B2, kcat/Km 540 M⁻¹ s⁻¹. Against it:
- B1 — 23-fold higher, 12500 M⁻¹ s⁻¹
- B3 — 150-fold higher, 78800 M⁻¹ s⁻¹
- B4 — 250-fold higher, 133000 M⁻¹ s⁻¹

These proteins were tested on vinyl butyrate. Conditions: pH 7; 25 °C.

Point of comparison: B1, Km 2500 µM. Against it:
- B2 — 10-fold higher, 25000 µM
- B3 — within 1.5-fold, 2000 µM
- B4 — within 1.5-fold, 2000 µM

Point of comparison: B3, kcat 460 s⁻¹. Against it:
- B1 — 2.2-fold lower, 210 s⁻¹
- B2 — within 1.5-fold, 625 s⁻¹
- B4 — 18-fold lower, 25 s⁻¹

Point of comparison: B2, kcat/Km 25000 M⁻¹ s⁻¹. Against it:
- B1 — 3.4-fold higher, 84000 M⁻¹ s⁻¹
- B3 — 9.2-fold higher, 230000 M⁻¹ s⁻¹
- B4 — 2-fold lower, 12500 M⁻¹ s⁻¹

Each protein was assayed on vinyl propionate. Conditions: pH 7; 25 °C.

Point of comparison: B3, Km 5000 µM. Against it:
- B1 — within 1.5-fold, 7000 µM
- B2 — 15-fold higher, 75000 µM
- B4 — 1.7-fold lower, 3000 µM

Point of comparison: B1, kcat 200 s⁻¹. Against it:
- B2 — 4-fold higher, 800 s⁻¹
- B3 — within 1.5-fold, 295 s⁻¹
- B4 — within 1.5-fold, 160 s⁻¹

Point of comparison: B1, kcat/Km 28600 M⁻¹ s⁻¹. Against it:
- B2 — 2.7-fold lower, 10700 M⁻¹ s⁻¹
- B3 — 2.1-fold higher, 59000 M⁻¹ s⁻¹
- B4 — 1.9-fold higher, 53300 M⁻¹ s⁻¹

The proteins below were run on vinyl laurate. Conditions: pH 7; 25 °C.

Protein B2 has a Km of 4000 µM.

Work on B2 yielded a kcat of 375 s⁻¹.

Work on B2 yielded a kcat/Km of 93800 M⁻¹ s⁻¹.
